The series deals with Taq DNA polymerase (UniProt P19821 P19821:1-832). Put plainly: EMSA; band of key/amplicon hybrid shifted on adding Taq; 4 mM MgCl2, 20 mM Tris-HCl pH 8.3, 20 mM KCl, room temp; text does not name the individual keys run. The conditions noted are these: tags: New England Biolabs (band shift); Maxima Hot Start Taq, Thermo Scientific, in PAD assay. The procedure:
Electrophoretic Band Shift Experiment Solution containing 100 or 200 nM detection key, PCR products and 12.5 U Taq DNA polymerase (New England Biolabs) in 20 mM Tris-HCl (pH 8.3), 20 mM KCl, 5 mM (NH4)2SO4, and 4 mM MgCl2 was incubated at room temperature for 20 min. The solution was mixed with 6× loading buffer and subjected to electrophoresis on a 20% polyacrylamide gel (Life technologies). The analysis was carried out in 1× TBE (100 mM Tris, 90 mM Borate, 1 mM EDTA) at 150 V for 160 min at 4° C. After GelRed (Biotium) staining, gels were scanned using a UV transilluminator. DNA polymerase was neither fluorescent nor stained by the dye.
The sequence homology among genus types was kept <50% to minimize non-specific binding. When tested, the HAI keys assumed high specificity. […] Electrophoretic band-shift analysis confirmed that the detection keys, in the presence of complementary target amplicon, bound to DNA polymerase and inhibited its catalytic activity (see FIG. 24). […] This confirmed the binding between detection keys and DNA polymerase.
(A gel shift assay detects complexes by their altered migration in electrophoresis.)

Sequence of Taq DNA polymerase (P19821 whole entry, one chain of several): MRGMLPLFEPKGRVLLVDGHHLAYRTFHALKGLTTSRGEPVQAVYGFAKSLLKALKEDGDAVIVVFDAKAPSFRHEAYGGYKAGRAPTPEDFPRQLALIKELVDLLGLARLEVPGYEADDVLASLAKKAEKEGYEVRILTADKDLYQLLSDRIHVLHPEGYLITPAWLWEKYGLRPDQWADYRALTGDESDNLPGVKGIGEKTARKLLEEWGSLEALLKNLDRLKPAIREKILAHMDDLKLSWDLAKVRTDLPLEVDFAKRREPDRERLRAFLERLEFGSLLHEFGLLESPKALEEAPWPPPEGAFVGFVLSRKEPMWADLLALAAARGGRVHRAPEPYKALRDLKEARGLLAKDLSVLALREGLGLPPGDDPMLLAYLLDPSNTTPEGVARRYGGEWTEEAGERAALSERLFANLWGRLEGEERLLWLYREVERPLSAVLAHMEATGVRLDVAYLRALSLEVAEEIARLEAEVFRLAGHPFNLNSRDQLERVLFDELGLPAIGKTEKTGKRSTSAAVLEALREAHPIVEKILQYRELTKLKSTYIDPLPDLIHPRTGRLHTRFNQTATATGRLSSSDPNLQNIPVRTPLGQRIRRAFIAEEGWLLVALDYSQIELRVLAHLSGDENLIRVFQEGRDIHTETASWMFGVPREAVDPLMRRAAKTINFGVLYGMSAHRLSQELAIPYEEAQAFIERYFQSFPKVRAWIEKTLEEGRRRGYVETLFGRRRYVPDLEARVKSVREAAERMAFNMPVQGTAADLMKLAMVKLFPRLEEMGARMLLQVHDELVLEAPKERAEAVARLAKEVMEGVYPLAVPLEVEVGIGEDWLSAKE

B1: Escherichia detection key / Escherichia amplicon (mixed)
DNA 1: CAATGTACAGTATTGTGGAGGAAGGGAGTAAAGTTAAT
DNA 2: TGCGGGTAACGTCAATGAGCAAAGGTATTAACTTTACTCCCTTCCTCCA
modifications: amplicon strand dU in place of dT in dUTP assay
For B1, the binding result is reported as “binds”.
